Measured values from patent US20240034802A1.

Tests used:
Test in all cases: flow cytometry, protein L-biotin then streptavidin-PE on CAR T cells
[1] = target: CARs on the transduced T cell surface
[2] = target: tandem CD19/CD20 chimeric antigen receptor, Construct CAR 1920 (Leader-CD19 VL-Whitlow linker CD19 VH (GGGGS)-5 CD20 VH (GGGGS)-3 CD20 VL CD8 hinge+TM-4-1BB-CD3z)
[3] = target: tandem CD20/CD19 chimeric antigen receptor, Construct CAR 2019 (Leader-CD20 VH (GGGGS)3-CD20 VL-(GGGGS)5-CD19 VL-Whitlow linker-CD19 VH CD8 hinge+TM-4-1BB-CD3z)
tandem CD20/CD19 chimeric antigen receptor, Construct CAR 2019 (Leader-CD20 VH (GGGGS)3-CD20 VL-(GGGGS)5-CD19 VL-Whitlow linker-CD19 VH CD8 hinge+TM-4-1BB-CD3z), sequence (chain, as listed by the source mutant): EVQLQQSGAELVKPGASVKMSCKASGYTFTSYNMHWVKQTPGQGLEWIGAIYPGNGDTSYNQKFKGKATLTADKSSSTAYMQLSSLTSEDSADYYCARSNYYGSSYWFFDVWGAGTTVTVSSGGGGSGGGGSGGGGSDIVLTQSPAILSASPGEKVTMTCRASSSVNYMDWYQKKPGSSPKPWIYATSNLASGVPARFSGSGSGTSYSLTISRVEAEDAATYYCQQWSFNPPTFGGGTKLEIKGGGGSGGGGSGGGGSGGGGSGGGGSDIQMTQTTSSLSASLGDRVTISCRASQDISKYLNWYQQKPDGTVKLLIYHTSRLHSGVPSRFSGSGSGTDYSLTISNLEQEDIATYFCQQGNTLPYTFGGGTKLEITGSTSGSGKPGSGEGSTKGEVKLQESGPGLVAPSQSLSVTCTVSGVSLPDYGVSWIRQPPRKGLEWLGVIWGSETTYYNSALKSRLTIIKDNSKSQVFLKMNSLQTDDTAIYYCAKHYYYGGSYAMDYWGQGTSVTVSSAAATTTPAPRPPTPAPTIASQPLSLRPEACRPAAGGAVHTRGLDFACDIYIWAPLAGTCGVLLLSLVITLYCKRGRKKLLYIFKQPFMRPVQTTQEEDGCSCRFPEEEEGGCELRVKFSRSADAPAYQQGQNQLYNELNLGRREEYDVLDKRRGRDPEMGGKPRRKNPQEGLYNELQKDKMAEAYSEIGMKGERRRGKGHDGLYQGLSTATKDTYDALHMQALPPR

tandem CD19/CD20 chimeric antigen receptor, Construct CAR 1920 (Leader-CD19 VL-Whitlow linker CD19 VH (GGGGS)-5 CD20 VH (GGGGS)-3 CD20 VL CD8 hinge+TM-4-1BB-CD3z), sequence (chain, as listed by the source mutant): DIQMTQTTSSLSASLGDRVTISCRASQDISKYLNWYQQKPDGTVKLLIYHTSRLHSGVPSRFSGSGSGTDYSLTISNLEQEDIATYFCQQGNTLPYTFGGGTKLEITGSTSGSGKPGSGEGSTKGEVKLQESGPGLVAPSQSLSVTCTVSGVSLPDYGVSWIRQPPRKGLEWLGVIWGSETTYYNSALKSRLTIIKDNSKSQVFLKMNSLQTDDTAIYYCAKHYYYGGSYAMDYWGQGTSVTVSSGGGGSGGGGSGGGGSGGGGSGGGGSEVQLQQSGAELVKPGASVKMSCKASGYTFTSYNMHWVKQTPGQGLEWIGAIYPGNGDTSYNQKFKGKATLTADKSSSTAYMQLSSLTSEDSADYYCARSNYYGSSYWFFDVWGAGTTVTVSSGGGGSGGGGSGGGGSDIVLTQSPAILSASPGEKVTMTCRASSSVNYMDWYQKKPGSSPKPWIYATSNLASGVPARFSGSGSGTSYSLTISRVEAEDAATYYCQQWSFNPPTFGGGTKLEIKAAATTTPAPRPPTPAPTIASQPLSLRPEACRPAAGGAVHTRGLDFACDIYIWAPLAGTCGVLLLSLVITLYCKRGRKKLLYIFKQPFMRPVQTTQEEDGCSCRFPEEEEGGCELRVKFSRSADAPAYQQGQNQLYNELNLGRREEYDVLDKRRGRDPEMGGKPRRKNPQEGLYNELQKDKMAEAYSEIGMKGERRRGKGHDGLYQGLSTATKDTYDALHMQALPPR

percent of transduced T cells stained (CAR surface expression) [1]: 61 to 93% | percent of transduced T cells stained [2]: 85% | percent of transduced T cells stained [3]: 89%
Substance: protein L-biotin conjugate (GenScript)
